Assay results as given in patent publication US20220089784A1 (University of California, published 2022).

T1: BoNT/F1 (proteolytic BoNT/F) (Clostridium botulinum, UniProt A7GBG3 1-1278)
T1 sequence: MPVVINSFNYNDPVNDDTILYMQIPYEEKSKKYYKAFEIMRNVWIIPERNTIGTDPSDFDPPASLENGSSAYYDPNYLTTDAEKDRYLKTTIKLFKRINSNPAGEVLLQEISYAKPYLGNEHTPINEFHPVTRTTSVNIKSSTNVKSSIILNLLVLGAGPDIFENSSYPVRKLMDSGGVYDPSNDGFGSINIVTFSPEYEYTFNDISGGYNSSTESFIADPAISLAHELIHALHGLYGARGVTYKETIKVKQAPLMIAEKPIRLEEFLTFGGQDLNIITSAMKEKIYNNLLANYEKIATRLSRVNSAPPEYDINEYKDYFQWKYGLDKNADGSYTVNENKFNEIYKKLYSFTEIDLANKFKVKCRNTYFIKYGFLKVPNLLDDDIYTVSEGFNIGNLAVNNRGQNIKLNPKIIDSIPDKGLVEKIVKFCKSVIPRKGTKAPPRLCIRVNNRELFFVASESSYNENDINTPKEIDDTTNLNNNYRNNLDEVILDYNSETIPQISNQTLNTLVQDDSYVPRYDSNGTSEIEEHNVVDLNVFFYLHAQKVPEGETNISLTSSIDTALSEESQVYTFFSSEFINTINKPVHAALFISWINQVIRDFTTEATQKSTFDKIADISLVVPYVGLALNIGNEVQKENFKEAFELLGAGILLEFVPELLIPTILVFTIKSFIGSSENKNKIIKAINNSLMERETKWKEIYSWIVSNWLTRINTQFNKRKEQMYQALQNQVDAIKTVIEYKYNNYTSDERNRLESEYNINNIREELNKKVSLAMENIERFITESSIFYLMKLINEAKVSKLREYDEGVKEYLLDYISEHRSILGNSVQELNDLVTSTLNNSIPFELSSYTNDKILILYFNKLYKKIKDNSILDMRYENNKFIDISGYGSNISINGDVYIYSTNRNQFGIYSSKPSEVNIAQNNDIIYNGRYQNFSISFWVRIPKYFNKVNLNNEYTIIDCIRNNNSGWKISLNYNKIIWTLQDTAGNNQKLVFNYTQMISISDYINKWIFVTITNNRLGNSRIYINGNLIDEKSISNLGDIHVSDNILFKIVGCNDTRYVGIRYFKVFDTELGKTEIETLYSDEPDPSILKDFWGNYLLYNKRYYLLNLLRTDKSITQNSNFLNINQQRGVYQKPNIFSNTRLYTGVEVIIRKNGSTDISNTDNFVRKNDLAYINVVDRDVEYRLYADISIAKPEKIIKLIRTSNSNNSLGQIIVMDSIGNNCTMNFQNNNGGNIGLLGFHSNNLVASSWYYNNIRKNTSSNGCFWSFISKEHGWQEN

T2: BoNT/F 202F (Clostridium botulinum, UniProt P30996 1-1274)
T2 sequence: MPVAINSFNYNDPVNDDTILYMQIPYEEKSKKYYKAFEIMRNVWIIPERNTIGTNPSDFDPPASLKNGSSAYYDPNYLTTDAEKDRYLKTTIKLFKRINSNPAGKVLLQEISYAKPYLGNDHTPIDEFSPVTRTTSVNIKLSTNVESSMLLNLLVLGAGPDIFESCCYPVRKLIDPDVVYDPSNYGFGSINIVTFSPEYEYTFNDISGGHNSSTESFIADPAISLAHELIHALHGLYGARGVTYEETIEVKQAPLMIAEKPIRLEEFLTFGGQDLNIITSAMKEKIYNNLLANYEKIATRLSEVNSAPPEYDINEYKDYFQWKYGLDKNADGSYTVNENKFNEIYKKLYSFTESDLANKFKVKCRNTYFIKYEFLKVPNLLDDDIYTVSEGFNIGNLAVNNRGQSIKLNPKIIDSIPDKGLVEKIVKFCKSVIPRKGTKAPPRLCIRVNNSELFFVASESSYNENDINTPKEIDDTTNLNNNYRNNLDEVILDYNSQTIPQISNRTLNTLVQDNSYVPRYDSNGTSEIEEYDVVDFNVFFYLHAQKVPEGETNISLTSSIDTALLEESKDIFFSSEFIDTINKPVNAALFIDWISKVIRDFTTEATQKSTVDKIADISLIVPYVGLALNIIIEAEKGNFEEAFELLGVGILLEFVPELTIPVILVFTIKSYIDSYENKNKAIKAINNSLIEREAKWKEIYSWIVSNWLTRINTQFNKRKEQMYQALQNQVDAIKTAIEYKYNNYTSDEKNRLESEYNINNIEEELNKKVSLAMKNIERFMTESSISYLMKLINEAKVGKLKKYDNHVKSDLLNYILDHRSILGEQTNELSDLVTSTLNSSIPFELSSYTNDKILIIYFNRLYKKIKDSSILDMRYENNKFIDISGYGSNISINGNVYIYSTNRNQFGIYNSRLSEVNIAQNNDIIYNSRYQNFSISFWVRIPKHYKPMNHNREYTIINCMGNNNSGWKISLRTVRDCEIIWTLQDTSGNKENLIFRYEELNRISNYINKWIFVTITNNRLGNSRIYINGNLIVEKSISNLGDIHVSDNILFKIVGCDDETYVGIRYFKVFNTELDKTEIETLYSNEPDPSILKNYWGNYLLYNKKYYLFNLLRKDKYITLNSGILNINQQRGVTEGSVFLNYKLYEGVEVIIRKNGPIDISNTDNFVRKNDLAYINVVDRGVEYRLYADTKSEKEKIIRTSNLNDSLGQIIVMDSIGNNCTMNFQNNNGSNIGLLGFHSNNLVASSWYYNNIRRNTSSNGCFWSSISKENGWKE


Legend:
[1] = molecular target: T1, BoNT/F1 (proteolytic BoNT/F); assay: yeast scFv FACS
BoNT/F 202F = molecular target: T2, BoNT/F 202F; assay: yeast scFv FACS

Binder	Kd [1] [pM]	binding result (BoNT/F 202F)
39H6 scFv (scFv, V domains shown) VH: EVQLVPSGGNLVQPGGSLRLSCAATGPIGSHWMTWVRQAPGQGLEWVANINLDGTEKFYVDSVKGRFTVSRDNRKSSVFLQMNNLRVDDTAVYYCARLQWGGYNGWLSPWGQGTLVTVSS VL: DIVMTQSPPSLSASVGDRVSLTCRASEYIGTSLNWYQQKPGKAPKLLIYAASALHSGVPSRFSGSGSGTDFTLTISGLQPEDFATYYCQQANDLPLTFGGGTKLEIK	526	binds
39A1 scFv (scFv, V domains shown) VH: EVQQVQSGGNLVQPGGSLRLSCAATGPIGSHWMTWVRQAPGQGLEWVANINLDGTEKFYVDSVKGRFTVSRDNRKSSVFLQMNNLRVDDTAVYYCARLQWGGYNGWLSPWGQGTLVTVSS VL: DIVMTQSPPSLSASVGDRVSLTCRASEYIGTSLNWYQQKPGKAPKLLIYAASALHSGVPSRFSGSGSGTDFTLTISGLQPEDFATYYCQQANDLPLTFGGGTKLEIK	588	binds
39D5.1 scFv (scFv, V domains shown) VH: EVQLVQSGGNLVQPGGSLRLSCAATGPIGSHWMTWVRQAPGQGLEWVASINLDGTEKFYVDSVKGRFTVSRDNRKSSVFLQMNNLRVDDTAVYYCARLQWGGYNGWLSPWGQGTLVTVSS VL: DIVMTQSPPSLSASVGDRVSLTCRASEYIGTSLNWYQQKPGKAPKLLIYAASALHSGVPSRFSGSGSGTDFTLTISGLQPEDFATYYCQQANDLPLTFGGGTKLEIK	1780	binds
41C2 scFv (scFv, V domains shown) VH: EVQQVQSGGNLVQPGGSLRLSCAATGPIGSHWMTWVRQAPGQGLEWVANINLDGTEKFYVDSVKGRFTVSRDNRKSSVFLQMNNLRVDDTAVYYCARLQWGGYNGWLSPWGQGTLVTVSS VL: DIVMTQSPPSLSASVGDRVSLTCRASEYIGTSLNWYQQKPGKAPKLLIYAASALHSGVPSRFSGSGSGTDFTLTISGLQPEDFATYYCQQTNDLPLTFGGGTKLEIK	355	binds
41E2 scFv (scFv, V domains shown) VH: EVQLVPSGGNLVQPGGSLRLSCAATGPIGSHWMTWVRQAPGQGLEWVANINLDGTEKFYVDSVKGRFTVSRDNRKSSVFLQMNNLRVDDTAVYYCARLQWGGYNGWLSPWGQGTLVTVSS VL: DIVMIQSPPSLSASVGDRVSLTCRASEYIGTSLNWYQQKPGKAPKLLIYAASALHSGVPSRFSGSGSGTDFTLTISGLQPEDFATYYCQQANDLPLTFGGGTKLEIK	584	binds
41F7 scFv (scFv, V domains shown) VH: EVQLVPSGGNLVQPGGSLRLSCAATGPIGSHWMTWVRQAPGQGLEWVANINLDGTEKFYVDSVKGRFTVSRDNRKSSVFLQMNNLRVDDTAVYYCARLQWGGYNGWLSPWGQGTLVTVSS VL: DILMTQSPPSLSASVGDRVSLTCRASEYIGTSLNWYQQKPGKAPKLLIYAASALHSGVPSRFSGSGSGTDFTLTISGLQPEDFATYYCQQANDLPLTFGGGTKLEIK	566	binds
43D3 scFv (scFv, V domains shown) VH: EVQQVQSGGNLVQPGGSLRLSCAATGPIGSHWMTWVRQAPGQGLEWVANINLDGTEKFYVDSVKGRFTVSRDNRKSSVFLQMNNLRVDDTAVYYCARLQWGGYNGWLSPWGQGTLVTVSS VL: DIVMTQSPPSLSASVGDRVSLTCRASEYIGTSLNWYQQKPGKAPKLLIYAASALHSGVPSRFSGSGSGTDFTLTISGLQPEDFATYYCQQANDLPLTFGGGTKLENK	333	binds
